Results as given in PMC4694050 (Journal of the American Chemical Society, 2015).
Substitutions are numbered along the chain they refer to. Names and notes keep the numbering of the source.

T1: Triosephosphate Isomerase from Yeast (Saccharomyces cerevisiae, UniProt P00942, Y208F)
T1 sequence (P00942 2-248 Y208F): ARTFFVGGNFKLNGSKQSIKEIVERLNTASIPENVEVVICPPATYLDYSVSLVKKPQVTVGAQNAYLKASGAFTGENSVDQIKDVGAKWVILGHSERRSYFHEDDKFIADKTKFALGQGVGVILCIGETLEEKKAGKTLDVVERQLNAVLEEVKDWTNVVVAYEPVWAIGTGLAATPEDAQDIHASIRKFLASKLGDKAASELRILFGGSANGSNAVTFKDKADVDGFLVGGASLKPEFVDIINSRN

B1: 208-TGAG for 208-YGGS (LRM): 208-TGAG for 208-YGGS loop 7 replacement mutation of TIM from chicken muscle (protein, UniProt P00940 2-248, looked up, variant Y208T G210A S211G)
Triosephosphate isomerase: APRKFFVGGNWKMNGDKKSLGELIHTLNGAKLSADTEVVCGAPSIYLDFARQKLDAKIGVAAQNCYKVPKGAFTGEISPAMIKDIGAAWVILGHSERRHVFGESDELIGQKVAHALAEGLGVIACIGEKLDEREAGITEKVVFEQTKAIADNVKDWSKVVLAYEPVWAIGTGKTATPQQAQEVHEKLRGWLKSHVSDAVAQSTRIITGAGVTGGNCKELASQHDVDGFLVGGASLKPEFVDIINAKH
B2: Y16F: Y16F mutant of ketosteroid isomerase (KSI) from Pseudomonas putida (protein, UniProt P07445 1-131, looked up, variant Y16F)
Steroid Delta-isomerase: MNLPTAQEVQGLMARFIELVDVGDIEAIVQMYADDATVEDPFGQPPIHGREQIAAFYRQGLGGGKVRACLTGPVRASHNGCGAMPFRVEMVWNGQPCALDVIDVMRFDEHGRIQTMQAYWSEVNLSVREPQ
B3: S211G (protein, UniProt P00942 2-248, looked up, variant S211G)
Triosephosphate isomerase: T1 sequence (P00942 2-248 Y208F) with F207Y, S210G
B4: Y208F: Y208F loop 7 mutant of yeast triosephosphate isomerase (protein, UniProt P00942 2-248, looked up, variant Y208F)
Triosephosphate isomerase: T1 sequence (P00942 2-248 Y208F)
B5: Y208T/S211G (protein, UniProt P00942 2-248, looked up, variant Y208T S211G)
Triosephosphate isomerase: T1 sequence (P00942 2-248 Y208F) with F207T, S210G
B6: Y208A (protein, UniProt P00942 2-248, looked up, variant Y208A)
Triosephosphate isomerase: T1 sequence (P00942 2-248 Y208F) with F207A
B7: S211A (protein, UniProt P00942 2-248, looked up, variant S211A)
Triosephosphate isomerase: T1 sequence (P00942 2-248 Y208F) with F207Y, S210A
B8: wildtype: wildtype triosephosphate isomerase from Saccharomyces cerevisiae (yTIM) (protein, UniProt P00942 2-248, looked up)
Triosephosphate isomerase: T1 sequence (P00942 2-248 Y208F) with F207Y
B9: Y208T (protein, UniProt P00942 2-248, looked up, variant Y208T)
Triosephosphate isomerase: T1 sequence (P00942 2-248 Y208F) with F207T
B10: Y208S (protein, UniProt P00942 2-248, looked up, variant Y208S)
Triosephosphate isomerase: T1 sequence (P00942 2-248 Y208F) with F207S

What was measured:
TIM from chicken muscle [1] = conditions: cited from earlier work
TIM from chicken muscle [2] = conditions: chicken muscle TIM loop replacement mutant; pH 7.5, 25 °C; cited from earlier work
TIM from chicken muscle [3] = conditions: chicken muscle TIM loop replacement mutant; pH 7.5, 25 °C; cited from earlier work; remark: listed apart in the source
[4] = tested on: ketosteroid isomerase (KSI) from Pseudomonas putida; conditions: cited from earlier work
[5] = tested on: Triosephosphate Isomerase from Yeast; format: biochemical, Saccharomyces cerevisiae; conditions: for GAP kcat: 30 mM triethanolamine pH 7.5, 25 °C
[6] = tested on: Triosephosphate Isomerase from Yeast; format: biochemical, Saccharomyces cerevisiae; conditions: isomerization of DHAP; pH 7.5, 25 °C, I = 0.1 (NaCl)
[7] = target: T1, Triosephosphate Isomerase from Yeast; format: biochemical
yTIM = format: biochemical, Saccharomyces cerevisiae; conditions: unactivated deprotonation of glycolaldehyde
[8] = target: T1, Triosephosphate Isomerase from Yeast; conditions: isomerization of [l-^2H]-dihydroxyacetone phosphate; cited from earlier work
[9] = isomerization of GAP, I = 0.1 (NaCl)

Molecule	GAP kcat [5, 9] [s^–1]	DHAP kcat [6]	other results
B1	–	–	(kcat/Km)E•HPi/Kd (TIM from chicken muscle [1]; chicken muscle TIM loop replacement mutant, third-order rate constant): 95 M^–2 s^–1; effect of mutation on [(kcat/Km)E]obs: KC (TIM from chicken muscle [1]; chicken muscle TIM): no change; GAP kcat (TIM from chicken muscle [2]): 16 s^–1; DHAP kcat (TIM from chicken muscle [3]): 8.0 s^–1
B2	–	–	falloff in activity [4]: 5000 fold; falloff in activity (decrease in kcat/Km) relative to that for Y16A, Y16G, Y16S and Y16T mutants [4]: ca. 100 fold
B3	7500 ± 500	810 ± 10 s^–1	activity relative to S211A TIM ([5]; S211G greater than S211A): 20 fold
B4	13 ± 1	4.5 ± 0.3 s^–1	reduction in enzyme activity compared to the Y208A and Y208S mutants [5]: ca. 50 fold; reduction in kcat implied by deviation from Figure 7 correlation ([7]; kcat for GAP vs Kd^⧧ correlation): 40 fold; negative deviation from the correlation in Figure 7 ([7]; log kcat for GAP vs intrinsic dianion binding energy): 1.6 log unit; decrease in (kcat/Km)E compared with wildtype (yTIM): 20 fold; primary deuterium kinetic isotope effect kH/kD on kcat/Km [8]: 6
B5	520 ± 30	135 ± 5 s^–1	GAP kcat/Km (upper value) ([5]; isomerization of GAP, pH 7.5, 25 °C, I = 0.1 (NaCl), calculated for total concentration of GAP): (7.3 ± 0.8) × 10^5 M^–1 s^–1; GAP kcat/Km (lower value) ([5]; isomerization of GAP, pH 7.5, 25 °C, calculated for the reactive carbonyl form, 4% of total GAP): 1.8 × 10^7 M^–1 s^–1; DHAP kcat/Km [6]: (3.4 ± 0.2) × 10^4 M^–1 s^–1
B6	740 ± 10	210 ± 5 s^–1	–
B7	2800 ± 100	linear plot	decrease in (kcat/Km)E compared with wildtype (yTIM): 30 fold
B8	8900 ± 700	860 ± 10 s^–1	–
B9	3700 ± 50	580 ± 10 s^–1	–
B10	940 ± 30	250 ± 5 s^–1	–
